Data reported in patent US20250026849A1 (ARCELLX, published 2025).

T1: P26 (human, UniProt P02771 381-609, limits assumed)
T1 construct: also called AFP p26
T1 sequence: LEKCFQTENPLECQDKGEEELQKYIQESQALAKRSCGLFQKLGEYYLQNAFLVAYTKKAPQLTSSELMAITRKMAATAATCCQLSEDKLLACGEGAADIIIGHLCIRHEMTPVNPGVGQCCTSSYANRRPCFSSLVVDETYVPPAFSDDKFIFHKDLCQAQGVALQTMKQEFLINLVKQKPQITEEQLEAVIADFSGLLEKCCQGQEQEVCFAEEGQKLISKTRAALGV


Target: T1, P26
Assay: ELISA, format not described
Set-up: unit not given here

Row | Binder | ELISA_avg
1 | D domain SEQ ID NO: 914 (designed binder) MGSWYEFYLRLSAIEDRLFALGGSEAELAAFEKEIAAFESELQAYKGKGNPEVESLRVQAAHIRTWLQAYRHN | 27.4
2 | D domain SEQ ID NO: 915 (designed binder) MGSWYEFYDRLDAIEDRLFALGGSEAELAAFEKEIAAFESELQAYKGKGNPEVESLRDQAAYIRTWLQAYRHN | 31.9
3 | D domain SEQ ID NO: 916 (designed binder) MGSWHEFWVRLEAIESRLFALGGSEAELAAFEKEIAAFESELQAYKGKGNPEVESLRVQAAHIRSWLQAYRHN | 26.9
4 | D domain SEQ ID NO: 917 (designed binder) MGSWVEFYHRLEAIEQRLMALGGSEAELAAFEKEIAAFESELQAYKGKGNPEVESLREQAAAIRSWLQAYRHN | 28.5
5 | D domain SEQ ID NO: 900 (designed binder) MGSWAEFSDRLNAIDQRLWALGGSEAELAAFEKEIAAFESELQAYKGKGNPEVEILREHAAEIRKFLQAYRHN | 25.3
6 | D domain SEQ ID NO: 901 (designed binder) MGSWMEFNHRLQAIDGRLWALGGSEAELAAFEKEIAAFESELQAYKGKGNPEVEMLREHAAAIRAFLQAYRHN | 33.4
7 | D domain SEQ ID NO: 922 (designed binder) MGSWFEFSNRLYAIWHRLTALGGSEAELAAFEKEIAAFESELQAYKGKGNPEVESLRTQAAFIRILLQAYRHN | 15.2
8 | D domain SEQ ID NO: 924 (designed binder) MGSWFEFEDRLFAIWTRLEALGGSEAELAAFEKEIAAFESELQAYKGKGNPEVESLRQSAASIRWLLQAYRHN | 10.9

Further lines, results first:

Row | ELISA_avg | Binder
9 | 28.7 | D domain SEQ ID NO: 918 (designed binder) MGSWVEFYERLNAIEYRLEALGGSEAELAAFEKEIAAFESELQAYKGKGNPEVESLREHAAYIRQWLQAYRHN
10 | 20 | D domain SEQ ID NO: 919 (designed binder) MGSWVEFYHRLDAIFDRLDALGGSEAELAAFEKEIAAFESELQAYKGKGNPEVEELRANAAGIRSWLQAYRHN
11 | 25.4 | D domain SEQ ID NO: 920 (designed binder) MGSWSEFTDRLFAIEDRLLALGGSEAELAAFEKEIAAFESELQAYKGKGNPEVEDLRMHAASIRLWLQAYRHN
12 | 22.9 | D domain SEQ ID NO: 921 (designed binder) MGSWHEFYDRLYAIWDRLDALGGSEAELAAFEKEIAAFESELQAYKGKGNPEVEGLRNAAAVIRIFLQAYRHN
13 | 19 | D domain SEQ ID NO: 923 (designed binder) MGSWFEFSDRLYAIWERLDALGGSEAELAAFEKEIAAFESELQAYKGKGNPEVESLRFQAAFIRYQLQAYRHN
14 | 8.21 | D domain SEQ ID NO: 925 (designed binder) MGSWHEFSERLFAIWTRLEALGGSEAELAAFEKEIAAFESELQAYKGKGNPEVEALRQSAAFIRVMLQAYRHN
15 | 8.54 | D domain SEQ ID NO: 926 (designed binder) MGSWGEFTVRLYAIDRRLDALGGSEAELAAFEKEIAAFESELQAYKGKGNPEVEELRRFAAIIRAFLQAYRHN
16 | 20.1 | D domain SEQ ID NO: 927 (designed binder) MGSWYEFDHRLMAISFRLVALGGSEAELAAFEKEIAAFESELQAYKGKGNPEVETLRRRAANIRHLLQAYRHN
17 | 20.2 | D domain SEQ ID NO: 928 (designed binder) MGSWSIFKYHLADIKLLLEALGGSEAELAYFEFLIADFEFTLQDYKGKGNPEVEALRKEAAAIRDELQAYRHN
18 | 8 | D domain SEQ ID NO: 929 (designed binder) MGSWHHFKYFLADIKSILEALGGSEAELAIFEVQIAYFEDLLQSYKGKGNPEVEALRKEAAAIRDELQAYRHN
